How the values were obtained:
[1] = target: T1, SSX-2 peptide on HLA-A*02:01 (human); test: multimer staining
T1 peptide: KASEKIFYV

[2] = target: T2, SSX-6 peptide on HLA-A*02:01 (human); test: cytokine release
T2 peptide: KFSEKISCV

[3] = target: T3, SSX-5 peptide on HLA-A*02:01 (human); test: cytokine release
T3 peptide: KASEKIIYV

[4] = target: T4, SSX-7 peptide on HLA-A*02:01 (human); test: cytokine release
T4 peptide: KSLEKISYV

[5] = target: T5, SSX-3 peptide on HLA-A*02:01 (human); test: cytokine release
T5 peptide: KVSEKIVYV

[6] = target: T6, SSX-10 peptide on HLA-A*02:01 (human); test: cytokine release
T6 peptide: KASEKILYV

[7] = target: T7, SSX-9 peptide on HLA-A*02:01 (human); test: cytokine release
T7 peptide: KSSEKIIYV

[8] = target: T8, SSX-4 peptide on HLA-A*02:01 (human); test: cytokine release
T8 peptide: KSSEKIVYV

[9] = target: T9, SSX-1; SSX-8 peptide on HLA-A*02:01 (human); test: cytokine release
T9 peptide: KYSEKISYV

- binding result [1]: recognises
- binding result [2]: no recognition
- binding result [3]: recognises
- binding result [4]: no recognition
- binding result [5]: recognises
- binding result [6]: recognises
- binding result [7]: recognises
- binding result [8]: recognises
- binding result [9]: no recognition
B1: SSX-2 TCR (TCR, V domains shown)
Valpha: AQKITQTQPGMFVQEKEAVTLDCTYDTSDPSYGLFWYKQPSSGEMIFLIYQGSYDQQNATEGRYSLNFQKARKSANLVISASQLGDSAMYFCAMTSGFGNEKLTFGTGTRLTIIP
Vbeta: DAMVIQNPRYQVTQFGKPVTLSCSQTLNHNVMYWYQQKSSQAPKLLFHYYDKDFNNEADTPDNFQSRRPNTSFCFLDIRSPGLGDAAMYLCATSRGQGGQPQHFGDGTRLSIL

Source: patent publication US20160279196A1 (published 2016)
